Publication PMC3435532

Test system: FLI1-CTD K4bR
Assay: EMSA
Conditions: non-acetylated baseline; normalized to Coomassie; Non-radioactive EMSA: 1 ug protein, 500 fmol biotinylated dsDNA, binding buffer per Uren et al. 2004 (not given); 6% gel in 0.5x TBE; protein stock 20 mM …

Substance: ets-binding site oligonucleotide (wild type)
- binding signal (fold vs non-acetylated wild type): 1
